Test results: the supplement of paper PMC7877785
± gives the uncertainty stated by the source.

Assay: self-splicing fitness, log relative to wild type (ln ratio); higher = more splicing; Tetrahymena group I intron in knt gene, E. coli kanamycin selection, DiMSum; sequences stand for … in CUCUCU…GGAGGGAAAAGUUAUCAGGCAUGCACCUGGUAGCUAGUCUUUAAACCAAUAGAUUGCAUCGGUUUAAAAGGCAAGACCGUCAAAUUGCGGGAAAGGGGUCAACAGCCGUUCAGUACCAAGUCUCAGGGGAAACUUUGAGAUGGCCUUGCAAAGGGUAUGGUAAUAAGCUGACGGACAUGGUCCUAACCACGCAGCCAAGUCCUAAGUCAACAGAUCUUCUGUUGAUAUGGAUGCAGUUCACAGACUAAAUGUCGGUCGGGGAAGAUGUAUUCUUCUCAUAAGAUAUAGUCGGACCUCUCCUUAAUGGGAGCUAGCGGAUGAAGUGAUGCAACACUGGAGCCGCUGGGAACUAAUUUGUAUGCGAAAGUAUAUUGAUUAGUUUUGGAGUACUCGUGGUCG
Method in brief: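 Six replicate transformations of E. coli BL21(DE3) with a pET-22b(+) library were grown overnight at 37°C or 30°C. The library randomised all eight P1ex-region intron nucleotides, the intron lying in the knt kanamycin-resistance gene, and plates were LB agar with or without 25 μg/mL kanamycin plus 100 μg/mL carbenicillin, 50 μM IPTG and 0.2% rhamnose. Pooled colonies were amplicon-sequenced on an Illumina HiSeq 2500, and fitness is the DiMSum error-weighted combination of wild-type-normalised replicate fold changes, kanamycin versus none.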

| Sequence | self-splicing fitness (ln) (30 °C) | self-splicing fitness (ln) (37 °C) |
| --- | --- | --- |
| AGGUAGCAAUAUUACGACAA | -0.614 ± 0.018 | -0.295 ± 0.035 |
| AGGUAGCAAUAUUACGAGGC | -3.696 ± 0.036 | -2.87 ± 0.047 |
| AGGUAGCAAUAUUACGAGUU | -2.033 ± 0.015 | -0.955 ± 0.033 |
| AGGUAGCAAUAUUACGAUGU | -0.919 ± 0.013 | -0.474 ± 0.033 |
| AGGUAGCAAUAUUACGAUUA | -0.677 ± 0.016 | -0.383 ± 0.033 |
| AGGUAGCAAUAUUACGCAUG | -2.022 ± 0.017 | -1.22 ± 0.034 |
| AGGUAGCAAUAUUACGCAUU | -1.862 ± 0.015 | -0.988 ± 0.034 |
| AGGUAGCAAUAUUACGCCCG | -0.077 ± 0.022 | -0.122 ± 0.04 |
| AGGUAGCAAUAUUACGCCGU | -1.24 ± 0.019 | -0.852 ± 0.035 |
| AGGUAGCAAUAUUACGCCUA | -0.599 ± 0.019 | -0.197 ± 0.035 |
| AGGUAGCAAUAUUACGCGGU | -3.312 ± 0.024 | -2.14 ± 0.037 |
| AGGUAGCAAUAUUACGGAUG | -3.698 ± 0.028 | -2.39 ± 0.037 |
| AGGUAGCAAUAUUACGUAGC | -2.916 ± 0.021 | -1.94 ± 0.036 |
| AGGUAGCAAUAUUACGUGCC | -1.99 ± 0.022 | -1.22 ± 0.037 |
| AGGUAGCAAUAUUACGUGCU | -0.841 ± 0.014 | -0.391 ± 0.033 |
| AGGUAGCAAUAUUACGUGGA | -3.365 ± 0.027 | -2.61 ± 0.037 |
| AGGUAGCAAUAUUACGUUCA | -0.556 ± 0.014 | -0.256 ± 0.033 |
| AGGUAGCAAUAUUACGUUGC | -3.874 ± 0.031 | -3.06 ± 0.047 |
| AGUAAGCAAUAUUACGAAAA | -2.29 ± 0.38 | -1.89 ± 0.33 |
| AGUAAGCAAUAUUACGAACA | -0.711 ± 0.13 | -0.282 ± 0.14 |
| AGUAAGCAAUAUUACGAUAA | -2.23 ± 0.32 | -1.4 ± 0.19 |
| AGUAAGCAAUAUUACGAUAC | -3.12 ± 0.28 | -2.48 ± 0.38 |
| AGUAAGCAAUAUUACGAUCC | -0.71 ± 0.097 | 0.236 ± 0.15 |
| AGUAAGCAAUAUUACGCCUC | – | -1.7 ± 0.38 |
| AGUAAGCAAUAUUACGCGCC | -0.457 ± 0.22 | 0.671 ± 0.29 |

| Sequence | self-splicing fitness (ln) (30 °C) | self-splicing fitness (ln) (37 °C) |
| --- | --- | --- |
| AGUAAGCAAUAUUACGGAGA | -3.47 ± 0.32 | -2.44 ± 0.42 |
| AGUAAGCAAUAUUACGGCCC | -0.317 ± 0.14 | -0.0183 ± 0.22 |
| AGUAAGCAAUAUUACGGCUC | -2.15 ± 0.2 | -1.79 ± 0.27 |
| AGUAAGCAAUAUUACGGGUC | -3.31 ± 0.42 | -2.92 ± 0.31 |
| AGUAAGCAAUAUUACGGGUG | -3.13 ± 0.18 | -0.695 ± 0.11 |
| AGUAAGCAAUAUUACGGUGA | -2.73 ± 0.17 | -1.21 ± 0.14 |
| AGUAAGCAAUAUUACGUAAG | -1.35 ± 0.13 | -1.96 ± 0.23 |
| AGUAAGCAAUAUUACGUCCG | -2.03 ± 0.17 | -0.809 ± 0.21 |
| AGUAAGCAAUAUUACGUCGC | – | -1.65 ± 0.31 |
| AGUAAGCAAUAUUACGUGCC | -0.0863 ± 0.11 | -0.612 ± 0.16 |
| AGUAAGCAAUAUUACGUGUG | -4.26 ± 0.18 | -2.32 ± 0.12 |
| AGUAAGCAAUAUUACGUUCA | -1.29 ± 0.095 | -0.266 ± 0.12 |
| AGUAAGCAAUAUUACGUUCU | -0.729 ± 0.085 | -1.21 ± 0.11 |
| AGUCAGCAAUAUUACGAUCC | 0.284 ± 0.16 | 0.198 ± 0.23 |
| AGUCAGCAAUAUUACGAUGU | 0.202 ± 0.062 | 0.34 ± 0.087 |
| AGUCAGCAAUAUUACGCAGA | -1.64 ± 0.2 | -1.45 ± 0.22 |
| AGUCAGCAAUAUUACGCCCC | 0.28 ± 0.17 | 0.672 ± 0.33 |
| AGUCAGCAAUAUUACGCCCU | -1.1 ± 0.24 | -0.315 ± 0.3 |
| AGUCAGCAAUAUUACGCUCA | -0.675 ± 0.095 | -0.791 ± 0.12 |
| AGUCAGCAAUAUUACGCUGU | -4.12 ± 0.34 | -2.73 ± 0.22 |
| AGUCAGCAAUAUUACGGACA | 0.233 ± 0.078 | 0.157 ± 0.087 |
| AGUCAGCAAUAUUACGGAGA | – | -1.53 ± 0.38 |
| AGUCAGCAAUAUUACGGAUA | -0.982 ± 0.1 | -0.318 ± 0.098 |
| AGUCAGCAAUAUUACGGCCC | -0.436 ± 0.12 | -0.0813 ± 0.18 |
| AGUCAGCAAUAUUACGGGAA | -2.12 ± 0.17 | -2.4 ± 0.22 |

| Sequence | self-splicing fitness (ln) (30 °C) | self-splicing fitness (ln) (37 °C) |
| --- | --- | --- |
| AGUCAGCAAUAUUACGGGAU | -1.04 ± 0.079 | -1.51 ± 0.15 |
| AGUCAGCAAUAUUACGGUAU | -0.592 ± 0.05 | -0.99 ± 0.063 |
| AGUCAGCAAUAUUACGUAUC | -1.19 ± 0.076 | -0.186 ± 0.11 |
| AGUCAGCAAUAUUACGUCAG | -2.65 ± 0.16 | -1.86 ± 0.15 |
| AGUCAGCAAUAUUACGUCUC | -4.29 ± 0.31 | -2.01 ± 0.15 |
| AGUCAGCAAUAUUACGUGAG | -0.691 ± 0.054 | -0.0397 ± 0.086 |
| AGUCAGCAAUAUUACGUGCU | -2.18 ± 0.12 | -1.43 ± 0.12 |
| AGUCAGCAAUAUUACGUGGU | -1.26 ± 0.11 | -2.37 ± 0.19 |
| AGUCAGCAAUAUUACGUUGA | – | -3.49 ± 0.31 |
| AGUGAGCAAUAUUACGAAGG | -3.45 ± 0.37 | -1.41 ± 0.38 |
| AGUGAGCAAUAUUACGAAUU | -3.18 ± 0.37 | -2.56 ± 0.33 |
| AGUGAGCAAUAUUACGAGUC | -4.15 ± 0.47 | -1.93 ± 0.18 |
| AGUGAGCAAUAUUACGCCAU | -2.58 ± 0.43 | -0.383 ± 0.35 |
| AGUGAGCAAUAUUACGCCCA | -3.28 ± 0.46 | -2.42 ± 0.37 |
| AGUGAGCAAUAUUACGCCCG | -2.27 ± 0.4 | – |
| AGUGAGCAAUAUUACGCGAA | -2.36 ± 0.32 | -1.56 ± 0.29 |
| AGUGAGCAAUAUUACGCGCU | – | -1.83 ± 0.39 |
| AGUGAGCAAUAUUACGCUUC | -2.41 ± 0.25 | -2.7 ± 0.34 |
| AGUGAGCAAUAUUACGGAAG | -2.58 ± 0.25 | – |
| AGUGAGCAAUAUUACGGCAC | -1.29 ± 0.17 | -1.01 ± 0.21 |
| AGUGAGCAAUAUUACGGCCU | -0.495 ± 0.13 | 0.416 ± 0.15 |
| AGUGAGCAAUAUUACGGCUA | -0.705 ± 0.24 | -1.38 ± 0.23 |
| AGUGAGCAAUAUUACGGUGC | -3.77 ± 0.27 | -1.91 ± 0.22 |
| AGUGAGCAAUAUUACGUACA | -1.72 ± 0.28 | -0.682 ± 0.36 |
| AGUGAGCAAUAUUACGUAUA | -2.18 ± 0.25 | -2.72 ± 0.27 |

| Sequence | self-splicing fitness (ln) (30 °C) | self-splicing fitness (ln) (37 °C) |
| --- | --- | --- |
| AGUGAGCAAUAUUACGUAUU | -3.27 ± 0.25 | -2.23 ± 0.31 |
| AGUGAGCAAUAUUACGUGAA | -3.3 ± 0.36 | -2.91 ± 0.19 |
| AGUGAGCAAUAUUACGUGCA | -2.06 ± 0.14 | -0.509 ± 0.13 |
| AGUGAGCAAUAUUACGUGGU | -3.64 ± 0.22 | -2.18 ± 0.23 |
| AGUGAGCAAUAUUACGUGUU | -4.67 ± 0.46 | -3.04 ± 0.25 |
| AGUUAGCAAUAUUACGACCG | -0.776 ± 0.093 | -0.166 ± 0.13 |
| AGUUAGCAAUAUUACGCAAA | – | -1.57 ± 0.29 |
| AGUUAGCAAUAUUACGCAGA | -2.06 ± 0.26 | -2.04 ± 0.26 |
| AGUUAGCAAUAUUACGCAGG | -2.31 ± 0.3 | -0.586 ± 0.29 |
| AGUUAGCAAUAUUACGCAGU | -2.38 ± 0.23 | -2.62 ± 0.31 |
| AGUUAGCAAUAUUACGCCUA | -1.11 ± 0.16 | -0.149 ± 0.13 |
| AGUUAGCAAUAUUACGCUCC | -1.45 ± 0.45 | -1.02 ± 0.33 |
| AGUUAGCAAUAUUACGCUUG | – | -1.83 ± 0.23 |
| AGUUAGCAAUAUUACGGACA | -0.912 ± 0.12 | 0.372 ± 0.13 |
| AGUUAGCAAUAUUACGGGGA | -1.84 ± 0.17 | -3.12 ± 0.19 |
| AGUUAGCAAUAUUACGGGUU | -1.38 ± 0.11 | -1.53 ± 0.15 |
| AGUUAGCAAUAUUACGGUCG | -0.622 ± 0.094 | -0.715 ± 0.14 |
| AGUUAGCAAUAUUACGUAAC | -4.54 ± 0.46 | -2.21 ± 0.24 |
| AGUUAGCAAUAUUACGUCAG | -3.99 ± 0.29 | -3.25 ± 0.19 |
| AGUUAGCAAUAUUACGUCGU | -2.35 ± 0.14 | -1.05 ± 0.14 |
| AGUUAGCAAUAUUACGUCUG | -1.43 ± 0.074 | -1.72 ± 0.11 |
| AUAAAGCAAUAUUACGAACA | 0.281 ± 0.085 | 0.425 ± 0.11 |
| AUAAAGCAAUAUUACGAAUC | -4.22 ± 0.42 | -1.31 ± 0.22 |
